# From patent US9345765B2, “Diagnostic and therapeutic uses of moesin fragments” (SHANGHAI KEXIN BIOTECH CO., LTD., priority 2010, dated 2016)
# How the values were obtained:
# Assay type in all cases: cell-based, human
# [1] = system: platelets; experiment: Inhibition of platelet activation induced by activators: CD62P and CD63 expression by flow cytometry; parameters: key to CD62P FD (Mnx) / CD63 FD (Mnx): mean fluorescence density by flow cytometry; settings: for effect on platelet activation induced by ADP (in words): activator ADP; for effect on platelet activation induced by the antibody against the N-terminal FERM domain of moesin (in words): activator anti-moesin N-terminal domain antibody; for CD62P FD (Mnx) / CD63 FD (Mnx): inhibitor first, n = 12
# Method: This experiment is performed to assess the blocking effect of various inhibitors (i.e. test agents) on the platelet activation induced by various different activators.
# The plasma samples were collected from 12 healthy individuals, and cultured in the presence of an inhibitor as described in Table 2 below for several minutes (e.g. 5 mins), and thereafter an activator of platelet activation was added therein and the plasma samples were further cultured for another several minutes (e.g. 5 mins). The culture conditions were the same as Example 2. After that, CD62P monoclonal antibody and CD63 monoclonal antibody labeled with FITC were used to detect the expressed CD62P and CD63 in the plasma samples, and the fluorescence density of the plasma samples was detected using flow cytometry of Beckman Coulter EPICS-XL. The expression levels of the CD62P and CD63 were represented by the average value of fluorescence density detected. A control group using 0.01M PBS instead of any inhibitor was also tested.
# The peptide RGDS is known as an inhibitor of platelet activation that inhibits platelet's activation by competing with platelet activator combined-1 (PAC-1) to bind to glycoprotein (GP) IIb/IIIa complex on the surface of platelets. The RGDS was prepared according to a conventional peptide synthesis in solid phase and used herein with a concentration of 10 mg/ml in 0.01 M PBS. The moesin fragments and anti-moesin antibodies used in this experiment were prepared according to Example 1. As used in this experiment, the anti-moesin N-terminal domain antibody has a concentration of 20 μg/ml in 0.01M PBS, the N-terminal FERM domain has a concentration of 2 mM in 0.01M PBS, and the anti-moesin C-terminal domain has a concentration of 20 μg/ml in 0.01M PBS. The ADP used herein has a concentration of 5 μM in 0.01M PBS. The results are listed in Table 2 below and also illustrated in FIG. 7.
# [2] = system: platelets; experiment: Platelet aggregation assay (Born method, transparency)
# Method: Plasma samples were collected from 6 healthy individuals and mixed with 3.8% sodium citrate in the ratio of 9:1 (v/v) to prevent solidification of the plasma. The mixed plasma samples were then centrifuged to obtain a portion of platelet-rich plasma (“PRP”) and another portion of platelet-poor plasma (“PPP”). The PRP was diluted with PPP to obtain a plasma sample having a platelet count of 5×10^8 per milliliter as a testing plasma sample for later use.
# The testing plasma sample was incubated in the presence of an inhibitor of platelet activation as described in Table 3 below for several minutes, and thereafter an activator of platelet activation as described in Table 3 below was added therein and the plasma sample was further incubated for another several minutes to obtain a final mixture. The final mixture was detected for blood aggregation by measuring the transparency of the sample using TYXN-91 Intelligent Blood Agglutometer according to the Born methods. The transparency of PRP in the presence of either ADP or antibody against the N-terminal domain of moesin was also detected as positive controls. A negative control containing no inhibitor was also tested.
# The testing results which was shown as platelet aggregation rate (“PAR”) and platelet aggregation inhibition rate (“PAIR”) are listed in Table 3 below.
# PAR is calculated by, 1) subtracting PPP's transparency with the testing group's transparency, and 2) dividing the result of step 1) by PPP's transparency and then multiplying 100%. PAIR is calculated by, 1) subtracting the PRP group's PAR with the testing group's PAR, and 2) dividing the result of step 1) by the PRP group's PAR and then multiplying 100%.
# The RGDS was prepared according to a conventional peptide synthesis in solid phase and used herein with a concentration of 10 ug/ml in 0.01M PBS. The moesin fragments and anti-moesin antibodies used in this experiment were prepared according to Example 1. The concentration regarding an inhibitor as described in Table 3 below is a final concentration of the inhibitor in the testing plasma sample, and the concentration regarding the activator of ADP and the antibody against N-terminal FERM domain of moesin also refers to a final concentration in the testing plasma sample.
# [3] = system: platelets; experiment: Stimulation of platelet activation: CD62P and CD63 expression in plasma by flow cytometry; settings: for CD62P FD (Mnx) / CD63 FD (Mnx): agent alone in plasma of 12 healthy individuals, final conc. ADP 5 μM, antibody 20 μg/ml, FERM domain 2 mM
# Method: The expressions of CD62P and CD63 are associated with platelet activation. Therefore, these two proteins can be used as indicators to characterize the profile of platelet activation. This experiment was performed in vitro to assess stimulation of platelet activation in the presence of various agents by detecting the expression levels of CD62P and CD63 using CD62P monoclonal antibody and CD63 monoclonal antibody.
# Plasma samples were collected from 12 healthy individuals, and cultured at room temperature in the presence of various agents as described in Table 1 below for several minutes (e.g. 5 mins). The culture conditions were selected so that the platelets can be fully activated within about 10 mins. After that, CD62P monoclonal antibody and CD63 monoclonal antibody labeled with fluorescein isothiocyanate (FITC) were used to detect the expressed CD62P and CD63 in the plasma samples, and the fluorescence density (“FD”) of the plasma samples was detected using flow cytometry of Beckman Coulter EPICS-XL. The expression levels of the CD62P and CD63 were represented by the average value of fluorescence density detected.
# The agents being tested in this assay are listed in Table 1 below, including ADP which is known as an agent stimulating platelet activation (Group 1), the anti-moesin N-terminal domain antibody (Group 2) and the N-terminal FERM domain of moesin (Group 3) which were both prepared according to Example 1.
# The concentration of an agent listed in Table 1 is a final concentration of the agent in the plasma sample. A plasma sample without any of the test agents was tested as a control group. The results are listed in Table 1 below and also illustrated in FIG. 6.
# [4] = then activator ADP (50 μl, 5 μM)
# [5] = then activator Anti-moesin N-terminal domain (50 μl, 20 μg/ml)
# [6] = activator ADP (5 μM), inhibitor at final concentration of Table 3, n = 6
# [7] = activator Anti-moesin N-terminal domain antibody (2 μg/mL), n = 6
Molecule,effect on platelet activation induced by ADP (in words) [1],effect on platelet activation induced by the antibody against the N-terminal FERM domain of moesin (in words) [1],"CD62P FD (Mnx) [1, 4]","CD63 FD (Mnx) [1, 4]","CD62P FD (Mnx) [1, 5]","CD63 FD (Mnx) [1, 5]","PAR (%) platelet aggregation rate [2, 6]","PAIR platelet aggregation inhibition rate [2, 7]","PAR (%) platelet aggregation rate [2, 7]",inhibition of platelet aggregation induced by the antibody against the N-terminal FERM domain of moesin (in words) ([2]; activator anti-moesin N-terminal domain antibody),CD62P FD (Mnx) [3],CD63 FD (Mnx) [3],"PAR (%) of PRP with the activator alone ([2]; PRP positive control, no inhibitor, ADP 5 μM or antibody 2 μg/mL, n = 6)","stimulation of platelet activation (in words) ([3]; agent alone, CD62P and CD63 expression vs control group)",inhibition of platelet aggregation induced by ADP (in words) ([2]; activator ADP),"PAIR platelet aggregation inhibition rate [2, 6]","PAIR platelet aggregation inhibition rate ([2]; activator Anti-moesin N-terminal domain antibody (2 μg/mL), n = 6, listed as N-terminal domain)"
"RGDS [solid-phase synthesis, reference compound]",can substantially inhibit,no blocking effect,7.04,5.61,17.98,20.13,11.12%,9.77%,55.55%,much less inhibiting effect,,,,,,,
"Nc1ncnc2c1ncn2[C@@H]1O[C@H](COP(=O)(O)OP(=O)(O)O)[C@@H](O)[C@H]1O [ADP, reference compound]",,,,,,,,,,,12.88,11.31,45.62%,,,,
"N-terminal FERM domain of moesin: N-terminal FERM domain of human moesin, amino acid residues 1-297 (SEQ ID NO:2), expressed in E. coli BL21(DE3) (protein, N-terminal FERM domain of human moesin protein) MPKTISVRVTTMDAELEFAIQPNTTGKQLFDQVVKTIGLREVWFFGLQYQDTKGFSTWLKLNKKVTAQDVRKESPLLFKFRAKFYPEDVSEELIQDITQRLFFLQVKEGILNDDIYCPPETAVLLASYAVQSKYGDFNKEVHKSGYLAGDKLLPQRVLEQHKLNKDQWEERIQVWHEEHRGMLREDAVLEYLKIAQDLEMYGVNYFSIKNKKGSELWLGVDALGLNIYEQNDRLTPKIGFPWSEIRNISFNDKKFVIKPIDKKAPDFVFYAPRLRINKRILALCMGNHELYMRRRKP",no significant effect,can significantly block,11.38,7.23,5.79,6.30,27.55%,approximately 90%,6.03%,,2.99,1.55,,does not stimulate platelet activation,much less,39.61%,90.21%
